# Experiments:
# HEK 293 cells = experiment: Immunoblotting of HA-tagged aequorin expression (3F10 antibody, pixel quantification); assay type: cell-based; conditions: western blot against HA epitope; HEK 293 lysates 48 hours post transfection; ImageQuant pixel quantification
# Method: Expression of recombinant protein was verified by immuoblotting using Anti-HA-Peroxidase, High Affinity (3F10) monoclonal antibody (Roche). This antibody recognizes the HA peptide sequence […] derived from the […] hemagglutinin protein (Kolodziej &Young, Methods Enzymol. 194:508-511, […]). HEK 293 cells were transiently transfected with the codon optimised and the wild type aequorin constructs. Cell lysates were prepared 48 hours post transfection, proteins (130 μg) separated by SDS-PAGE electrophoresis, transferred to nylon membrane and stained with a 1:500 dilution of 3F10 antibody. Protein expression was quantitated using pixel quantification in ImageQuant software (Molecular Dynamics) and indicated a 8-fold increase in expression of cythuAEQ over cytAEQ.
# HEK293 cells = experiment: Aequorin luminescence (calcium flux) after Ionomycin stimulation of transiently transfected cells; assay type: cell-based; conditions: for Peak Relative Light Units (RLU) following Ionomycin Stimulation: HEK293 cells transiently transfected, 48 hours post transfection; for fold increase in RLU relative to wild type aequorin: number in parenthesis; for fold increase in luminescent output (RLU) with the codon optimised aequorin: text summary over 1 and 2 μM CaCl2, Ionomycin stimulation, versus wild type
# Method: CHOK1 and Phoenix (HEK293 derived) cells were grown in Ham's F12 and DMEM respectively. The medium was supplemented with10% foetal calf serum, 2 mM glutamine, penicillin and streptomycin 100 μg/ml.
# Cells were seeded in Costar 6 well plates at a density of 5×10^5 18-24 hours prior to transfection. On the day of transfection the cells were 85-90% confluent. Plasmids, cytaeqHA1(9aa)pcDNA3#2 and hucytaeqHA(9aa)pcDNA3#20, were transfected into the cells using Lipofectamine Plus reagents. A co-transfection with EGFP (Clontech) allowed transfection variation between wells to be ascertained. A modification to the standard protocol from Life Technologies was used. In summary, 2 μg of DNA (1 μg of each for co-transfections) diluted in 400 μl of HamsF12+12 μl lipofectamnine plus reagent was incubated for 15 minutes at room temperature. 8 μl of Lipofectamine reagent +400 μl of HamsF12 medium was also incubated for 15 minutes at room temperature. The two mixtures were combined and incubated for a further 15 minutes before being aspirated onto the cells containing 1.6 mls of Ham's F12 medium. The plates were incubated for 3 hours at 37° C. 5% CO2. The transfection reagents were replaced with Ham's F12 complete medium and the cells incubated for 24 hours. At 24 hours the cells were transferred to 96 well plates. 48 hours post transfection the 96 wells were rinsed in PBS and replaced with 50 μl of DMEM (without phenol red) containing 1% heat inactivated FCS and 2.5 μm hcp coelenterazine. The cells were incubated at 37° C. 5% CO2 for 3 hours. The wells were aspirated of the coelenterazine mix and replaced with 175 μl of PBS containing either 1 μM or 2 μM CaCl2. The plates were transferred to Tropix TR717 luminometer for stimulation. 2 μM of ionomycin (25 μl), a calcium ionophore, was injected into the wells and the reaction recorded over 60 seconds. 1:
# Numbers in parenthesis represent the fold increase in RLU relative to wild type aequorin.
Molecule,fold increase in expression over non-humanised (wild type) aequorin (HEK 293 cells),Peak Relative Light Units (RLU) following Ionomycin Stimulation (HEK293 cells; 1 μM CaCl2),fold increase in RLU relative to wild type aequorin (HEK293 cells; 1 μM CaCl2),Peak Relative Light Units (RLU) following Ionomycin Stimulation (HEK293 cells; 2 μM CaCl2),fold increase in RLU relative to wild type aequorin (HEK293 cells; 2 μM CaCl2),fold increase in luminescent output (RLU) with the codon optimised aequorin (HEK293 cells; listed as codon optimised aequorin),fold increase in luminescent output (RLU) with the codon optimised aequorin (HEK293 cells; listed as codon-optimised sequence)
"Codon optimised: Codon-optimised (humanised) apoaequorin coding sequence SEQ ID NO: 3 with HA1 epitope, in pcDNA3 expression plasmid (nucleic acid, HA1 epitope fused, in pcDNA3; humanised apoaequorin) DNA: ATGAAGCTGACCCCCGACTTCGACAACCCCAAGTGGATCGGCCGCCACAAGCACATGTTCAACTTCCTGGACGTGAACCACAACGGCCGCATCAGCCTGGACGAGATGGTGTACAAGGCCAGCGACATCGTGATCAACAACCTGGGCGCCACCCCCGAGCAGGCCAAGCGCCACAAGGACGCCGTGGAGGCCTTCTTCGGCGGCGCCGGCATGAAGTACGGCGTGGAGACGGAGTGGCCCGAGTACATCGAGGGCTGGAAGCGCCTGGCCTCCGAGGAACTGAAGCGCTACAGCAAGAACCAGATCACCCTGATCCGCCTGTGGGGCGACGCCCTGTTCGACATCATCGACAAGGACCAGAACGGCGCCATCTCCCTGGATGAGTGGAAGGCCTACACCAAGTCCGTCGGCATCATCCAGTCCTCCGAGGACTGCGAGGAGACGTTCCGCGTGTGCGACATCGACGAGAGCGGCCAGCTGGACGTGGACGAGATGACCCGCCAGCACCTGGGCTTCTGGTACACCATGGACCCCGCCTGCGAGAAGCTGTACGGCGGCGCCGTGCCCTAA",~8 fold,18008 RLU,19 fold,15561 RLU,21 fold,19-21 fold,> 20 fold
"Wild type: Wild-type jellyfish apoaequorin gene SEQ ID NO: 2 with HA1 epitope in pcDNA3, used as control (nucleic acid, listed as Aequorea victoria, HA1 epitope fused, in pcDNA3) DNA: ATGAAGCTTACATCAGACTTCGACAACCCAAGATGGATTGGACGACACAAGCATATGTTCAATTTCCTTGATGTCAACCACAATGGAAAAATCTCTCTTGACGAGATGGTCTACAAGGCATCTGATATTGTCATCAATAACCTTGGAGCAACACCTGAGCAAGCCAAACGACACAAAGATGCTGTAGAAGCCTTCTTCGGAGGAGCTGGAATGAAATATGGTGTGGAAACTGATTGGCCTGCATATATTGAAGGATGGAAAAAATTGGCTACTGATGAATTGGAGAAATACGCCAAAAACGAACCAACGCTCATCCGTATATGGGGTGATGCTTTGTTTGATATCGTTGACAAAGATCAAAATGGAGCCATTACACTGGATGAATGGAAAGCATACACCAAAGCTGCTGGTATCATCCAATCATCAGAAGATTGCGAGGAAACATTCAGAGTGTGCGATATTGATGAAAGTGGACAACTCGATGTTGATGAGATGACAAGACAACATTTAGGATTTTGGTACACCATGGATCCTGCTTGCGAAAAGCTCTACGGTGGAGCTGTCCCCTAA",–,944 RLU,–,734 RLU,–,–,–

# Reference: patent publication US20040171005A1, “Codon-optimised nucleic acid coding for apoaequorin and uses thereof” (priority 2001, published 2004)
